# Columns and labels:
# Assay in all cases: cell-based or functional assay
# [1] = biological target: HIV Env of primary isolate SF162 (HIV)
# [2] = biological target: HIV Env of primary isolate 6101 (HIV)
# [3] = biological target: HIV Env of primary isolate BG1168 (HIV)
# [4] = biological target: HIV Env of primary isolate DU422 (HIV)
# [5] = biological target: HIV Env of primary isolate DU123 (HIV)
# [6] = biological target: HIV Env of primary isolate TV-1 (HIV)
Binder,neutralization titer of HIV primary isolate (lectin at 400 ug/ml) [1],neutralization titer of HIV primary isolate (lectin at 400 ug/ml) [2],neutralization titer of HIV primary isolate (lectin at 400 ug/ml) [3],neutralization titer of HIV primary isolate (lectin at 400 ug/ml) [4],neutralization titer of HIV primary isolate (lectin at 400 ug/ml) [5],neutralization titer of HIV primary isolate (lectin at 400 ug/ml) [6],neutralization titer of HIV primary isolate [1],neutralization titer of HIV primary isolate [2],neutralization titer of HIV primary isolate [3],neutralization titer of HIV primary isolate [4],neutralization titer of HIV primary isolate [5],neutralization titer of HIV primary isolate [6]
"galanthus nivalis lectin (protein, UniProt P30617 24-128, looked up) DNILYSGETLSTGEFLNYGSFVFIMQEDCNLVLYDVDKPIWATNTGGLSRSCFLSMQTDGNLVVYNPSNKPIWASNTGGQNGNYVCILQKDRNVVIYGTDRWATG",22400 titer,724 titer,< 20 titer,> 43700 titer,> 43700 titer,> 43700 titer,,,,,,
"urtica diotica (UDA) lectin (protein, UniProt P11218 24-112, looked up) QRCGSQGGGGTCPALWCCSIWGWCGDSEPYCGRTCENKCWSGERSDHRCGAAVGNPPCGQDRCCSVHGWCGGGNDYCSGSKCQYRCSSS",,,,,,,467 titer,428 titer,190 titer,468 titer,1580 titer,600 titer

# Reference: US20150050309A1
